Data set [1] deals with HEK cells. Description: HT dye switch fluorescence profiles of HT-iPAK4 assemblies in HEK cells. It is filed as cell-based. The settings on record: dishes fixed at 8 h vs 30 h (22 h, one day). As for the experimental part: To test whether assemblies could encode HT dye timestamps, HEK cells growing HT-iPAK4 assemblies were successively washed with different colors of HT-ligand dyes at Δt=2 h intervals in the sequence JF503, JF669, JFX608, JF503, JF669 (FIG. 2A; see FIGS. 11A-11B for dye structures, photophysical properties, and synthesis of JFX608). The cells were then fixed and imaged with spectrally resolved confocal microscopy. Clear progression of colored bands matching the sequence of dye additions was observed.
To test the limits of how fast dye transitions could be encoded, assemblies were made with seven dye switches at Δt=1 h. At this short interval, peaks were still visible, but their amplitude was suppressed relative to the parts of the assembly with no dye switches, indicating incomplete transitions in dye labeling (FIG. 12E).
A protein ticker tape may stably store its information for extended times. […] The fluorescence profiles for the section of the assemblies that grew concurrently (from t=0 to 8 h) were then compared. […]
Image processing and data analysis: Images of individual assemblies were rotated to align the long axis to the x-axis. Fluorescence profiles were then calculated as the median fluorescence in each spectral channel across the width of the assembly. […] Dye transitions were identified as local maxima in the second derivative of the dye fluorescence as a function of position. […]

The subject of data set [2] is cultured neurons. Description: Live-dead assay in cultured neurons expressing iPAK4 assemblies. It counts as cell-based, rat. Conditions: assemblies grown for 6 days. How it is done: Related to FIG. 5. […] Staining of live cells (calcein-AM) and dead cells (EthD-1) is shown. The assay was performed at day 6 after lentiviral infection. Many iPAK4 assemblies are present in FIG. 22A (assemblies share the channel with calcein-AM). Scale bars: 200 μm. FIG. 22C provides a statistical comparison of the live-cell and dead-cell populations, and the dead/live cell ratio in iPAK4+ and iPAK4− groups (N=5 fields of view per group).
To test for effects of iPAK4 assemblies on neuronal survival, iPAK4 (95%) and HT-iPAK4 (5%) were lentivirally expressed in cultured neurons, the assemblies were allowed to grow for 6 days, and then a live-dead assay was performed (FIGS. 22A-22C). […] The iPAK4-expressing neurons had typical soma and neurite structures, similar to those observed in healthy neurons.
Primary neuron culture: Before the plating of primary hippocampal neurons, 14 mm glass-bottom dishes were first incubated with 40 μg/ml poly-D-lysine (PDL) in PBS at room temperature for 1 h and subsequentially with 20 μg/ml laminin (Fisher Scientific; 23-017-015) at 4° C. overnight, followed by thorough wash with PBS. […] Neuronal health was monitored daily from DIV1 to DIV7. […]

The test system of data set [3] is HEK cells. Description: Live-dead assay in HEK cells expressing iPAK4 assemblies. It is filed as cell-based. The settings on record: n=24 fields of view. The text has this: FIGS. 9A-9C show a live-dead assay to assess the effect of iPAK4 assemblies on cell health. Related to FIG. 1A, FIG. 9A provides images of HEK293T cells expressing CMV::iPAK4 (95%) and CMV::HT-iPAK4 (5%). Many iPAK4 assemblies can be identified in a magnified view. […] Live cells (calcein-AM), dead cells (EthD-1), and HaloTag-iPAK4 stained with JFX608 are shown. FIG. 9C provides a statistical comparison of the dead cell population in iPAK4+ and iPAK4− groups. Each point represents one field of view. Two dishes per condition were investigated. […] The statistical comparison was performed by student's t-test. Lower and upper bounds of the box plot: 25th and 75th percentile; lower and upper whiskers: minimum and maximum; squares: mean; center lines: median.
It was then determined whether the iPAK4 assemblies affect cell survival, as the assemblies often grew longer than the cell diameters (FIG. 6A).

Data set [4] has as its system cultured neurons. Description: Patch clamp electrophysiology of neurons with iPAK4 assemblies. It counts as cell-based, rat. The settings on record: N=11, mean±s.e.m. As for the experimental part:
FIGS. 5A-5H show protein ticker tape recordings of cFos activation in neurons. FIG. 5A provides an image of a cultured neuron expressing lentiviral CMV::iPAK4 (90%) and CMV::eGFP-iPAK4 (10%). Scale bar 50 μm. […] Spikes were evoked by a current injection of 100 pA. […] Error bars show mean±s.e.m. Two-sided Student's t-test was employed for data comparison. […] Scale bar 5 μm.
Whether iPAK4 assemblies affected neuronal electrophysiology was then tested. Neurons infected with lentivirus encoding CMV::iPAK4 (90%) and CMV::eGFP-iPAK4 (10%) grew single straight assemblies (FIG. 5A). Patch clamp recordings were used to compare the electrophysiology of neurons with and without assemblies. Although in many cases the assembly length was several times longer than the soma diameter, neurons with assemblies spiked normally (FIG. 5B), and had membrane resistance, membrane capacitance, resting potential, and rheobase that were statistically indistinguishable from neurons without assemblies (N=11 neurons with assemblies, N=12 without, two-sided Student's t-test, FIG. 5C).
Patch clamp electrophysiology: Whole-cell recordings were performed in extracellular buffer containing (in mM): 125 NaCl, 2.5 KCl, 15 HEPES, 25 D-glucose, 1 MgCl2, and 2 CaCl2 (pH=7.2-7.3 with NaOH). Assembly-forming and non-forming (control) neurons were visualized with a home-built inverted epifluorescence microscope. Experiments were made at 23° C. under ambient atmosphere. The whole-cell internal solution comprised (in mM): 8 NaCl, 130 KMeSO3, 10 HEPES, 5 KCl, 0.5 EGTA, 4 Mg-ATP, and 0.3 Na3-GTP. The pH was adjusted to 7.2-7.3 with KOH and osmolarity was set to 290-295 mOsm/L. Borosilicate glass pipettes were used with a resistance of 3-5 MΩ (1.5 mm OD). Signals were acquired and filtered at 4 kHz with the internal Bessel filter using a Multiclamp 700B (Molecular Devices) and digitized with PCIe-6323 (National Instruments) at 10 kHz. Following the whole-cell configuration, membrane capacitance (Cm), and membrane resistance (Rm) were estimated under voltage-clamp mode. Measurements of resting membrane potential (Vrest), rheobase, and spike rates were made under current-clamp mode. Rheobase was defined as the minimum current step (in 500 ms duration) required for any spike onset. Whole-cell recordings were monitored and analyzed using a custom code written in LabView and Matlab.
On the technique in general: In patch-clamp work, channel activity is measured electrically.

B1: iPAK4: fusion of the catalytic domain of the Pak4 kinase and the 38 amino acid iBox domain of its inhibitor Inka1 (SEQ ID NO: 1) (protein)
chain: MDYKDDDDKSGSEAEDWTAALLNRGRSRQPLVLGDNCFADLVHNWMELPEEFPAAPAVPGPPGPRSPQREPQRVSHEQFRAALQLVVDPGDPRSYLDNFIKIGEGSTGIVCIATVRSSGKLVAVKKMDLRKQQRRELLFNEVVIMRDYQHENVVEMYNSYLVGDELWVVMEFLEGGALTDIVTHTRMNEEQIAAVCLAVLQALSVLHAQGVIHRDIKSDSILLTHDGRVKLSDFGFCAQVSKEVPRRKSLVGTPYWMAPELISRLPYGPEVDIWSLGIMVIEMVDGEPPYFNEPPLKAMKMIRDNLPPRLKNLHKVSPSLKGFLDRLLVRDPAQRATAAELLKHPFLAKAGPPASIVPLMRQNRTR
For the molecule B1, in data set [1], the “monomer exchange in the assembly” value is listed as “negligible”. In data set [2], the “fraction of dead cells vs dishes not infected with any lentivirus” value is given as “no significant difference”. Further, the dead cells in data set [3] turned out to be 0.267±0.139%. In data set [4], the membrane capacitance was 63±6 pF, the membrane resistance was determined as 404±73 MΩ, the resting potential was −61.2±1.2 mV and the rheobase amounted to 89±12 pA.

The record behind these values is patent US20230151437A1, “USE OF PROTEIN ASSEMBLIES TO RECORD CELLULAR EVENTS” (President and Fellows of Harvard College, priority 2021, published 2023).
